Laboratory results taken from FireProtDB (doi:10.1021/bi952930e).

B1: Ribonuclease, P00648 (parent)
chain: MMKMEGIALKKRLSWISVCLLVLVSAAGMLFSTAAKTETSSHKAHTEAQVINTFDGVADYLQTYHKLPDNYITKSEAQALGWVASKGNLADVAPGKSIGGDIFSNREGKLPGKSGRTWREADINYTSGFRNSDRILYSSDWLIYKTTDHYQTFTKIR

Variants of: B1
Settings: Bacillus amyloliquefaciens, pH 6.3, 25 °C, Urea, MES 100 mM, reversible: yes, structure 1BNI, whole UniProt chain shown

Row | Variant | ddG of mutation (higher = less stable) (Fluorescence) | denaturant m value (Fluorescence) | denaturant midpoint (higher = more stable) (Fluorescence) | ddG of mutation (higher = less stable) (CD) | denaturant m value (CD) | denaturant midpoint (higher = more stable) (CD)
1 | R130K | 4.13 kcal/mol | 1.68 kcal/mol/M | 2.43 M |  |  | 
2 | R130Q | 2.05 kcal/mol | 2.28 kcal/mol/M | 3.51 M |  |  | 
3 | D140N | 4.11 kcal/mol | 1.99 kcal/mol/M | 2.44 M |  |  | 
4 | R116S | 2.72 kcal/mol | 1.86 kcal/mol/M | 3.16 M |  |  | 
5 | R116M | 2.12 kcal/mol | 2.14 kcal/mol/M | 3.47 M |  |  | 
6 | R116K |  |  |  | 3.13 kcal/mol | 1.89 kcal/mol/M | 2.94 M
7 | D122N | 4.8 kcal/mol | 1.69 kcal/mol/M | 2.08 M |  |  | 
